The target in this assay is glutathione-S-transferase coupled human VDR fusion protein (human) (UniProt P11473). The assay is described as follows: pull-down; GSThVDR-Sepharose bead slurry as bait, [35S]-labelled in vitro translated RUNX2 as prey; PPI buffer (20 mM HEPES pH 7.9, 200 mM KCl, 1 mM EDTA, 4 mM MgCl2, 1 mM dithiothreitol, 0.1% Nonidet P-40, 10% glycerol), beads pre-blocked with BSA; with or without 1,25(OH)2D3; SDS-PAGE, autoradiography, densitometry.
Chain of UniProt P11473 (P11473 whole entry, the tested form may be a part): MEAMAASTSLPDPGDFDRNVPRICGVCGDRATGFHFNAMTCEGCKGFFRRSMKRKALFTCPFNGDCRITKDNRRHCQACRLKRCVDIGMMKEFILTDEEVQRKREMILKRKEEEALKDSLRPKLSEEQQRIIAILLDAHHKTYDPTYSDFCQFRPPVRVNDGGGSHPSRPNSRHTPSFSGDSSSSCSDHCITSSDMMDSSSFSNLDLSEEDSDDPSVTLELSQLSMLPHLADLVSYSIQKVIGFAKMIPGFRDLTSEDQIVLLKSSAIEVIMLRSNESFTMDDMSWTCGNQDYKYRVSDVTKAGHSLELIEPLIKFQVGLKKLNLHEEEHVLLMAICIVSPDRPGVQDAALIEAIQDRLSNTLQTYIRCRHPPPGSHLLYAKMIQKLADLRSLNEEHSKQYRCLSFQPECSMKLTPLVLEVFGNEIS

“human RUNX2 23Q wild type (natural protein)” gave a percent of label recovered in pull down of 25%.

The values are drawn from publication PMC3418257.
